Here are results for three molecules from patent US20170247440A1 (Hoffmann-La Roche, published 2017).

Assay [1] concerns the target T1, human PDGF-BB (human, UniProt P01127 82-190).
T1 construct: Bought recombinant protein (Cell Signaling 8921BF or R&D Systems 220-BB); also called huPDGF-BB; recombinant human PDGF-BB
As to the kind of experiment: SPR kinetic screening, IgG on immobilized human PDGF-BB (Example 27). The protocol:
Binding of anti-PDGF-BB antibodies to human PDGF-BB was investigated by surface plasmon resonance using a BIACORE T200 instrument (GE Healthcare). Around 20 resonance units (RU) of recombinant human PDGF-BB (5 μg/ml; ordering code 220-BB; R&D Systems) were coupled on a Series S C1 chip (GE Healthcare BR-1005-35) at pH 4.0 by using an amine coupling kit supplied by GE Healthcare. Running buffer for immobilization was HBS-N pH 7.4 (10 mM HEPES, 150 mM NaCl, pH 7.4, GE Healthcare). For the following kinetic characterization, running and dilution buffer was HBS-P pH 7.4 (10 mM HEPES, 150 mM NaCl, 0.05% Surfactant P20, pH 7.4, GE Healthcare). The flow cell was set to 25° C.—and the sample block set to 12° C.—and primed with running buffer twice.
(SPR reads the build-up and loss of mass on a sensor chip optically.)

A further assay has as its target T2, cynomolgus PDGF-BB (cynomolgus, UniProt A0A2K5UX81 82-190, Disulfide-linked homodimer of two identical B chains; one copy is given.).
T2 construct: also called cynPDGF-BB
As to the kind of experiment: SPR, apparent KD (avidity), IgG on immobilized cynomolgus PDGF-BB (Example 18). On the procedure:
The binding analysis was carried out using a surface plasmon resonance spectroscopy-based technology applying a BIAcore B4000 system (GE Healthcare). The antigen cynomolgus PDGF-BB was immobilized at a concentration of 1 μg/mL in PBS, 0.1% BSA, 0.05% Tween using amine coupling chemistry on a C1 sensor chip (GE Healthcare, Cat. No. BR-1005-35). Anti-PDGF-BB antibody in increasing concentrations was applied in 10 mM HEPES pH 7.2, 150 mM NaCl. Utilizing a read out time of 180 sec. association phase and 600 sec. dissociation phase the apparent kₐ and apparent kd were calculated. The apparent KD (avidity) was calculated using the BIAcore T200 v2.0 fitting software.

Assay [2] addresses T1, human PDGF-BB. As to the kind of experiment: SPR, IgG.
Assay [3] concerns the target T1, human PDGF-BB. As to the kind of experiment: ELISA, immobilized human PDGF-BB (Example 9). On the procedure: (§1) The binding analysis was carried out using an enzyme-linked immunosorbent assay (ELISA)-based technology. The antigen human PDGF-BB (Cell Signaling, Cat. No 8921BF) was immobilized at a concentration of 125 ng/mL in 25 μL in PBS, 0.5% BSA and 0.05% Tween on a 384 well microtiter plate (Thermo Scientific, Cat. No. 464718). Every of the following steps was followed by a washing routine of 3 times 90 μL PBS with dispense and aspiration: 1) blocking step: saturating unbound surface (1 hour, 2% BSA); 2) anti-PDGF-BB antibody in increasing concentrations for 1 hour; 3) detection antibody, dilution=1:3000 (ECL anti-rabbit IgG-POD, NA9340V+ECL anti-human IgG-POD, NA933V or alternatively for murine antibodies ECL anti-mouse IgG-POD; NA 9310V). 20-30 min. after adding the substrate 3,3′,5,5′-tetramethylbenzidine (TMB, Piercenet, Cat. No. 34021) the optical density was determined at 370 nm. The EC₅₀ was calculated with a four parameter logistic model using GraphPad Prism 6.0 software.
(In an ELISA, binding on a coated surface is turned into a signal by an enzyme label.)

The next assay deals with rat PDGF-BB (rat, UniProt Q05028 74-182). As to the kind of experiment: ELISA, immobilized rat PDGF-BB (Example 12). The protocol:
as §1, with “antigen rat” for “antigen human”, “PDGF-BB (R&D, 520-BB)” for “PDGF-BB (Cell Signaling, Cat. No 8921BF)”, “μL PBS, 0.5% BSA, 0.05 Tween” for “μL PBS”

Assay [4] concerns the target T1, human PDGF-BB. As to the kind of experiment: SPR, apparent KD (avidity), IgG on immobilized human PDGF-BB (Example 17). On the procedure: The binding analysis was carried out using a surface plasmon resonance spectroscopy-based technology applying a BIAcore B4000 system (GE Healthcare). The antigen human PDGF-BB (Cell Signaling, Cat. No. 8921BF) was immobilized at a concentration of 1 μg/mL in PBS, 0.1% BSA, 0.05 Tween using amine coupling chemistry on a C1 sensor chip (GE Healthcare, Cat. No. BR-1005-35). Anti-PDGF-BB antibody in increasing concentrations was applied in 10 mM HEPES pH 7.2, 150 mM NaCl. Utilizing a read out time of 180 sec. association phase and 600 sec. dissociation phase the apparent kₐ and apparent kd were calculated. The apparent KD (avidity) was calculated using the BIAcore T200 v2.0 fitting software.

The target of assay [5] is T1, human PDGF-BB. As to the kind of experiment: cell-based or functional assay.

T1 sequence (P01127 82-190 limits assumed): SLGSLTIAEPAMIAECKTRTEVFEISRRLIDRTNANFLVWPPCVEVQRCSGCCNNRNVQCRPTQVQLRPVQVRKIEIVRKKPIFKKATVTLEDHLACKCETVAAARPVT
Chain of rat PDGF-BB (Q05028 74-182): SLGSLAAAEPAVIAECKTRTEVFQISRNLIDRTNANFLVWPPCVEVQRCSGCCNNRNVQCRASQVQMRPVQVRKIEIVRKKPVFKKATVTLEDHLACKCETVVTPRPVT
T2 sequence (A0A2K5UX81 entry or part of it limits assumed): as the sequence (P01127 82-190 limits assumed) above, with I7V counted along it

B1: antibody 0060 (antibody, V domains shown)
VH: EVQLLESGGDLVQPGGSLRLSCAASGFTFRSYAMSWVRQAPGKGLEWVSGISAGGGYIYYADSVTGRFTSSRDNYKNTLYLQMNRLRVEDTAVYYCARFYPGYNSDTYYYDGMDVWGQGTTVTVSS
VL: not shown
notes: Human antibody from a human Ig locus transgenic rabbit; IgG
Regarding B1, the off-rate (koff) (as a rule, the first-order rate constant of dissociation) in the assay with human PDGF-BB [1] was determined as 0.000264 s⁻¹. The t½ (usually the time needed for the level to fall by half in the phase considered) with human PDGF-BB [1] is 0.733 h. Moreover, the Kd is less than 0.0303 nM with cynomolgus PDGF-BB and 0.0782 nM with human PDGF-BB [4]. This molecule also displayed a T½ with human PDGF-BB [2] of 1.9 h. Moreover, the EC50 (as a rule, the concentration giving half of the maximal effect) in the assay with human PDGF-BB [3] worked out at 0.0375 µg/mL; in the assay with rat PDGF-BB, 0.11 µg/mL. Moreover, the “IC50 Phospho-Inhibition” value with human PDGF-BB [5] amounted to 0.0016 µg/mL. Moreover, the “IC50 Proliferation 3T3” value with human PDGF-BB [5] stood at 0.0363 µg/mL.

B2: antibody 0064 (antibody, V domains shown)
VH: EVQLVESGGGLVQPGGSLRLSCAASGFTFSSYWMSWVRQAPGKGLEWVSTISDGGGTTSYADSVKGRFTISRDNSKNTLYLQMNSLRAEDTAVYSCAESGGATDYLFDYWGQGTLVTVSS
VL: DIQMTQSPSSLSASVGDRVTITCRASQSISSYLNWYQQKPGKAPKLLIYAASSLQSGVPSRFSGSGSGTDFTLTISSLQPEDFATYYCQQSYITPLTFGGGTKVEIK
notes: as for B1
Regarding B2, the koff with human PDGF-BB [1] came to 0.000135 s⁻¹. Further, the t½ in the assay with human PDGF-BB [1] was 1.42 h. Also, the results for the Kd with cynomolgus PDGF-BB and with human PDGF-BB [4] were 0.0596 nM and 0.0769 nM, respectively. Also, the T½ with human PDGF-BB [2] turned out to be 1.9 h. In addition, the EC50 was found to be 0.016 µg/mL with human PDGF-BB [3] and 0.00369 µg/mL in the assay with rat PDGF-BB. In the assay with human PDGF-BB [5], the “IC50 Proliferation 3T3” value turned out to be 0.062 µg/mL.

B3: antibody 0058 (antibody, V domains shown)
VH: EVQLVESGGGLVQPGGSLRLSCAASGFTFSSFWMTWVRQAPGKGLEWVASISAGGGITHYPDSVKDRFTVSRDNAKNSLYLQLNSLRAEDTAVYYCAESGGDIYSDFDYWGQGTLVTVSS
VL: not shown
notes: as for B1
In the case of B3, in the assay with human PDGF-BB [1], the off-rate constant (koff) was 0.000291 s⁻¹ and the t½ came to 0.667 h. In addition, the Kd with cynomolgus PDGF-BB amounted to 0.0288 nM. Further, the T½ with human PDGF-BB [2] came to 1.42 h. The molecule further displayed a concentration for a half-maximal effect (EC50) with human PDGF-BB [3] of 0.0401 µg/mL. In addition, the EC50 in the assay with rat PDGF-BB came out at 0.0966 µg/mL. Further, in the assay with human PDGF-BB [4], the Kd was 0.062 nM. In the assay with human PDGF-BB [5], the “IC50 Phospho-Inhibition” value turned out to be 0.0029 µg/mL and the “IC50 Proliferation 3T3” value was 0.0793 µg/mL.
